Article doi:10.1101/2025.11.26.690650 (bioRxiv, 2025)
Like-named read-outs stand apart in the source and are kept apart here.

B1: AtmiR403a (dsRNA)
RNA 1: UUAGAUUCACGCACAAACUCG
RNA 2: UGUUUUGUGCUUGAAUCUAAUU
modifications: 5'-phosphate
B2: siR gf698_21 (dsRNA)
RNA 1: UAGUUCAUCCAUGCCAUGUGU
RNA 2: ACAUGGCAUGGAUGAACUAUA
modifications: 5'-phosphate
B3: NbmiR403b (dsRNA)
RNA 1: UUAGAUUCACGCACAAACUCG
RNA 2: UGUUUGUGCGUGAUUCUGACA
modifications: 5'-phosphate
B4: AtmiR162 (dsRNA)
RNA 1: UCGAUAAACCUCUGCAUCCAG
RNA 2: GGAGGCAGCGGUUCAUCGAUC
modifications: 5'-phosphate
B5: NbmiR403a (dsRNA)
RNA 1: UUAGAUUCACGCACAAACUCG
RNA 2: UGUUUGUGCGUGAAUCUGACA
modifications: 5'-phosphate
B6: Turnip crinkle virus P38 protein (TCV P38), wildtype (natural protein, UniProt P06663 1-351, looked up)
chain: MENDPRVRKFASDGAQWAIKWQKKGWSTLTSRQKQTARAAMGIKLSPVAQPVQKVTRLSAPVALAYREVSTQPRVSTARDGITRSGSELITTLKKNTDTEPKYTTAVLNPSEPGTFNQLIKEAAQYEKYRFTSLRFRYSPMSPSTTGGKVALAFDRDAAKPPPNDLASLYNIEGCVSSVPWTGFILTVPTDSTDRFVADGISDPKLVDFGKLIMATYGQGANDAAQLGEVRVEYTVQLKNRTGSTSDAQIGDFAGVKDGPRLVSWSKTKGTAGWEHDCHFLGTGNFSLTLFYEKAPVSGLENADASDFSVLGEAAAGSVQWAGVKVAERGQGVKMVTTEEQPKGKWQALRI
B7: siR gf698_22 (dsRNA)
RNA 1: UAGUUCAUCCAUGCCAUGUGUA
RNA 2: CACAUGGCAUGGAUGAACUAUA
modifications: 5'-phosphate
B8: siR gf698_24 (dsRNA)
RNA 1: UAGUUCAUCCAUGCCAUGUGUAAU
RNA 2: UACACAUGGCAUGGAUGAACUAUA
modifications: 5'-phosphate
B9: dsRNA_33 (dsRNA)
RNA 1: CUAAGAUGCUCGCUGCCAAUGAACGACCCUCCCUAA
RNA 2: UUAGGGAGGGUCGUUCAUUGGCAGCGAGCAUCU
modifications: 5'-phosphate
B10: AtmiR168 (dsRNA)
RNA 1: UCGCUUGGUGCAGGUCGGGAA
RNA 2: CCCGCCUUGCAUCAACUGAAU
modifications: 5'-phosphate

Assays:
[1] = target: TCV P38_W274A (Turnip crinkle virus) (UniProt P06663); experiment: native MS
[2] = target: T1, TCV P38 (capsid protein, VSR) wild type (Turnip crinkle virus (pTCV cDNA), UniProt P06663 1-351); experiment: EMSA
T1 sequence: B6 chain

[3] = target: T1, TCV P38 (capsid protein, VSR) wild type; experiment: competition
[4] = target: T1, TCV P38 (capsid protein, VSR) wild type; experiment: competition; remark: listed apart in the source
[5] = target: T1, TCV P38 (capsid protein, VSR) wild type; experiment: EMSA; remark: listed apart in the source
crystal structure = target: the molecule itself; experiment: crystal structure
AUC = target: the molecule itself; experiment: AUC
[6] = target: T1, TCV P38 (capsid protein, VSR) wild type; experiment: competition; remark: listed apart in the source
[7] = target: T1, TCV P38 (capsid protein, VSR) wild type; experiment: EMSA; remark: listed apart in the source

Molecule	Kd [2] [pM]	Ki [3] [pM]	Ki [4] [pM]	also measured
TCV P38_W274A (from UniProt P06663 1-351) (natural protein)				stoichiometry N [1]: 2
B1	870 ± 130			
B2	560 ± 90	700 ± 70		
B3	1270 ± 100			
B4	300 ± 30	500 ± 150	330 ± 170	
UAGUUCAUCCAUGCCAUGUGU (ssRNA, 5'-phosphate) [ss gf698_21]				binding result [5]: no binding
B5	360 ± 50			
B6				stoichiometry N (crystal structure): 60; stoichiometry N (AUC): 2
UAGUUCAUCCAUGCCAUGUGUAAU (ssRNA, 5'-phosphate) [ss gf698_24]				binding result [5]: no binding
B7	530 ± 70	570 ± 60	350 ± 100	Ki [6]: 180 ± 50 pM
B8	440 ± 90	330 ± 30	330 ± 80	Ki [6]: 400 ± 100 pM
B9		70 ± 30	60 ± 10	Kd [7]: 770 ± 50 pM; Ki [6]: 140 ± 30 pM
B10	550 ± 50	950 ± 300	700 ± 200	
